Substrate: C/C(C=O)=C\CC/C(C)=C/C=O
Test: purified protein
Assay type: biochemical, Antirrhinum majus
Conditions: 50 μM NADPH fixed, 200 mM MOPS pH 7.0, 100 mM NaCl, 1% THF, 25 °C, 20 nM enzyme

B1: AmISY (Am18679), Antirrhinum majus iridoid synthase (Antirrhinum majus) (protein)
chain: MSWWYRRSIGETEQKRIEINGVSPTYQSVALIVGVTGIAGSGLAETLSFSDTPGGPWKVYGVARRPCPKWLAKLNVNYVQCDIANTDETYSKVAPLTDITHIFYVSWTGSEDVALNTLMFKNILDSVIPNAPNLKHVSLQTGIKYYWGNMAEMDSTNQPHECPFYENMPRLKQDNFYYNLEDLVYDSAVRKNGLSWSIHRPALIFGFSPCSMMNTVSTLCVYAAICKHENKPLVYTGTETSWTCLWDAVDSDLLAEHFLWAATVPNAKNQAFNINNGDVFKWKHMWKVLAKEFDIEAIGYEGKEPVLLEDLMKDKDSVWDEIVKKHDLVPTKLRDIAAFWLADVVFRNKETLCSMNKNKEFGFMGFRDTTKSFVSSINKMRDFKFIP
notes: GenBank record is one of MF281392-MF281395 (not assigned in the text)
Km: 1.1 ± 0.1 µM | kcat: 0.72 ± 0.02 s⁻¹
